Measured values published in US20250320281A1.

Key:
Assay in all cases: cell-based or functional assay
[1] = target: HIV-1 92BR020 Env (pseudovirus, clade B) (HIV-1)
[2] = target: HIV-1 Env of isolate 92UG024 (HIV-1)
[3] = target: HIV-1 Env of isolate 92WR009 (HIV-1)
[4] = target: HIV-1 Env of isolate 97ZA012 (subtype C) (HIV-1)
[5] = target: HIV-1 Env of isolate 98IN022 (subtype C) (HIV-1)
[6] = target: HIV-1 Env of isolate APV-17 (HIV-1)
[7] = target: HIV-1 Env of isolate MGRM-A-003 (HIV-1)
[8] = target: HIV-1 Env of isolate MGRM-AE-005 (subtype AE) (HIV-1)
[9] = target: HIV-1 Env of isolate MGRM-AE-008 (subtype AE) (HIV-1)
[10] = target: HIV-1 Env of isolate MGRM-C-004 (subtype C) (HIV-1)
[11] = target: HIV-1 Env of isolate MGRM-Chronic-B-008 (subtype B) (HIV-1)
[12] = target: HIV-1 Env of isolate TRO.11 (subtype B) (HIV-1)
[13] = target: HIV-1 Env of isolate VLGCA1 (subtype A) (HIV-1)
[14] = target: HIV-1 MGRM-D-001 Env (pseudovirus) (HIV-1)
[15] = target: HIV-1 envelope glycoprotein (Env) of isolate MGRM-C-013 (HIV-1)
[16] = target: HIV-1 Env of isolate 92UG046 (pseudovirus) (HIV-1)
[17] = target: HIV-1 Env of isolate APV_17 (subtype B pseudovirus) (HIV-1)
[18] = target: HIV-1 Env of isolate MGRM-AE-005 (HIV-1)
[19] = target: HIV-1 Env of isolate MGRM-AG-011 (HIV-1)
[20] = target: HIV-1 Env of isolate MGRM-Chronic-B-011 (subtype B pseudovirus) (HIV-1)
[21] = target: HIV-1 Env of isolate MGRM-Chronic-B-017 (subtype B pseudovirus) (HIV-1)
[22] = target: HIV-1 Env of isolate MGRM-D-011 (pseudovirus) (HIV-1)
[23] = target: HIV-1 Env of isolate MGRM-D-014 (pseudovirus) (HIV-1)
[24] = target: HIV-1 Env of isolate MGRM-F1-015 (HIV-1)
[25] = target: HIV-1 Env of isolate SC422661.8 (subtype B pseudovirus) (HIV-1)
[26] = target: HIV-1 NL43 envelope glycoprotein (Env) on pseudovirus (HIV-1)

5329_C19 (PGT-136) (antibody), sequence (VH): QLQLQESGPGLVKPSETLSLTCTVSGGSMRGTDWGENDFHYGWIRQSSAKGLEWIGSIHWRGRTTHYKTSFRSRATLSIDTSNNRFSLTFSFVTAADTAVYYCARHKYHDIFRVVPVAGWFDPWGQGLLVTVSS
5329_C19 (PGT-136) (antibody), sequence (VL): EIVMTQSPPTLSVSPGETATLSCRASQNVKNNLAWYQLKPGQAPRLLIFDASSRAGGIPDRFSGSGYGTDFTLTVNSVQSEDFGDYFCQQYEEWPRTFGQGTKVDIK
5345_I01 (PGT-137) (antibody), sequence (VH): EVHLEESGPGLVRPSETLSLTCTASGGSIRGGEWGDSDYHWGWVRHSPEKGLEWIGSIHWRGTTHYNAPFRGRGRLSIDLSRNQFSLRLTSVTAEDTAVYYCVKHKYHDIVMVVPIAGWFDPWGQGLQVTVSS
5345_I01 (PGT-137) (antibody), sequence (VL): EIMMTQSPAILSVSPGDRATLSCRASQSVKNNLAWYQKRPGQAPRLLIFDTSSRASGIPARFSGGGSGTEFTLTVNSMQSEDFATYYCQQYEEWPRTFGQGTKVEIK

| Substance | IC50 neutralization [1] | IC50 (µg/mL), pseudovirus neutralization [2] | IC50 [3] | IC50 neutralization [4] | IC50 neutralization [5] | neutralization IC50 [6] | IC50 [7] | IC50 (µg/mL), pseudovirus neutralization [8] | IC50 (µg/mL), pseudovirus neutralization [9] | IC50 neutralization [10] | IC50 neutralization [11] | IC50 neutralization [12] | IC50 (µg/mL), pseudovirus neutralization [13] | IC50 (µg/mL), pseudovirus neutralization [15] | IC50, pseudovirus neutralization [16] | IC50 (µg/mL), pseudovirus neutralization [17] | IC50 [18] | IC50 [19] | IC50 (µg/mL), pseudovirus neutralization [20] | neutralization IC50 (pseudovirus) [14] | other results |
| --- | --- | --- | --- | --- | --- | --- | --- | --- | --- | --- | --- | --- | --- | --- | --- | --- | --- | --- | --- | --- | --- |
| 5329_C19 (PGT-136) (antibody) | > 10 µg/mL | 0.052 µg/mL | > 50 µg/mL | > 50 µg/mL | 13.6 µg/mL | > 50 µg/mL | > 50 µg/mL | > 50 µg/mL | > 50 µg/mL | 0.034 µg/mL | > 50 µg/mL | 0.073 µg/mL | > 50 µg/mL | > 50 µg/mL |  |  |  |  |  |  | IC50 (neutralizing activity, pseudovirus) [14]: > 10 µg/mL |
| 5345_I01 (PGT-137) (antibody) |  | 0.106 µg/mL | > 50 µg/mL | > 50 µg/mL | 0.408 µg/mL | > 50 µg/mL | > 50 µg/mL | > 50 µg/mL | > 50 µg/mL | 0.026 µg/mL | > 50 µg/mL | 9.35 µg/mL | > 50 µg/mL | > 50 µg/mL |  |  |  |  |  |  |  |
| 5343_B08 (PGT-135) (antibody) | 0.104 µg/mL | 0.01 µg/mL | > 50 µg/mL | > 50 µg/mL | 0.014 µg/mL | > 50 µg/mL | > 50 µg/mL | > 50 µg/mL | > 50 µg/mL | 0.046 µg/mL | > 50 µg/mL | 0.03 µg/mL | > 50 µg/mL | > 50 µg/mL |  |  |  |  |  |  | IC50 (neutralizing activity, pseudovirus) [14]: > 10 µg/mL |
| 4877_D15 (PGT-122) (antibody) | 0.0337 µg/mL |  |  |  |  |  |  |  |  |  |  |  |  |  | > 50 µg/mL | 0.25 µg/mL | > 50 µg/mL | > 50 µg/mL | > 50 µg/mL | 0.867 µg/mL | IC50 (µg/mL), pseudovirus neutralization [21]: 5.66 µg/mL; IC50, pseudovirus neutralization [22]: 0.019 µg/mL; IC50, pseudovirus neutralization [23]: 0.012 µg/mL; IC50 (µg/mL), pseudovirus neutralization [24]: 31.4 µg/mL; IC50 (µg/mL), pseudovirus neutralization [25]: 0.103 µg/mL |
| 4858_P08 (PGT-123) (antibody) | 0.013 µg/mL |  |  |  |  |  |  |  |  |  |  |  |  |  | > 50 µg/mL | 0.114 µg/mL | > 50 µg/mL | > 50 µg/mL | > 50 µg/mL | 0.215 µg/mL | IC50 (µg/mL), pseudovirus neutralization [21]: > 50 µg/mL; IC50, pseudovirus neutralization [22]: 0.012 µg/mL; IC50, pseudovirus neutralization [23]: 0.009 µg/mL; IC50 (µg/mL), pseudovirus neutralization [24]: > 50 µg/mL; IC50 (µg/mL), pseudovirus neutralization [25]: 0.039 µg/mL; neutralization IC50 [26]: > 10 µg/mL; neutralization IC80 [26]: > 10 µg/mL; neutralization IC90 [26]: > 10 µg/mL; neutralization IC95 [26]: > 10 µg/mL |
| 5136_H01 (PGT-131) (antibody) |  | > 50 µg/mL | 3.12 µg/mL | 1.81 µg/mL | > 50 µg/mL | > 50 µg/mL | > 50 µg/mL | 0.017 µg/mL | > 50 µg/mL | 3.71 µg/mL | > 50 µg/mL | 1.91 µg/mL | > 50 µg/mL | > 50 µg/mL |  |  |  |  |  |  |  |
| 5141_B17 (PGT-126) (antibody) | 0.0163 µg/mL |  |  |  |  |  |  |  |  |  |  |  |  |  | > 50 µg/mL | 0.353 µg/mL | 0.324 µg/mL | 24.5 µg/mL | 0.108 µg/mL | 0.0639 µg/mL | IC50 (µg/mL), pseudovirus neutralization [21]: > 50 µg/mL; IC50, pseudovirus neutralization [22]: 0.009 µg/mL; IC50, pseudovirus neutralization [23]: 0.03 µg/mL; IC50 (µg/mL), pseudovirus neutralization [24]: > 50 µg/mL; IC50 (µg/mL), pseudovirus neutralization [25]: 0.119 µg/mL; IC50, pseudovirus neutralization [26]: > 10 µg/mL; IC80 (pseudovirus neutralization) [26]: > 10 µg/mL; IC90 (pseudovirus neutralization) [26]: > 10 µg/mL; IC95 (pseudovirus neutralization) [26]: > 10 µg/mL |
| 5147_N06 (PGT-130) (antibody) | 1.12 µg/mL | > 50 µg/mL | 1.27 µg/mL | 1.32 µg/mL | > 50 µg/mL | 10.7 µg/mL | > 50 µg/mL | 0.006 µg/mL | > 50 µg/mL | 2.76 µg/mL | 5.18 µg/mL | 0.257 µg/mL | > 50 µg/mL | > 50 µg/mL |  |  |  |  |  | > 10 µg/mL | Neutralization by PGT-130, IC50 [14]: > 10 µg/mL; Neutralization by PGT-130, IC80 [14]: > 10 µg/mL; Neutralization by PGT-130, IC90 [14]: > 10 µg/mL; Neutralization by PGT-130, IC95 [14]: > 10 µg/mL |
| 5123_A06 (PGT-125) (antibody) | 0.0214 µg/mL |  |  |  |  |  |  |  |  |  |  |  |  |  | > 50 µg/mL | 8.06 µg/mL | 0.01 µg/mL | > 50 µg/mL | 3.23 µg/mL | 2.31 µg/mL | IC50 (µg/mL), pseudovirus neutralization [21]: > 50 µg/mL; IC50, pseudovirus neutralization [22]: 0.008 µg/mL; IC50, pseudovirus neutralization [23]: > 50 µg/mL; IC50 (µg/mL), pseudovirus neutralization [24]: > 50 µg/mL; IC50 (µg/mL), pseudovirus neutralization [25]: 30.1 µg/mL |
| 5114_A19 (PGT-128) (antibody) |  | > 50 µg/mL | 0.812 µg/mL | 0.019 µg/mL | 0.014 µg/mL | 0.016 µg/mL | > 50 µg/mL | 0.032 µg/mL | > 50 µg/mL | 0.025 µg/mL | 0.143 µg/mL | 0.018 µg/mL | 0.838 µg/mL | > 50 µg/mL |  |  |  |  |  |  |  |
